The target in experiment [1] is T1, recombinant human IGFBP-1 (human, UniProt P08833 26-259).
T1 construct: also called rhIGFB-1
T1 sequence (looked up): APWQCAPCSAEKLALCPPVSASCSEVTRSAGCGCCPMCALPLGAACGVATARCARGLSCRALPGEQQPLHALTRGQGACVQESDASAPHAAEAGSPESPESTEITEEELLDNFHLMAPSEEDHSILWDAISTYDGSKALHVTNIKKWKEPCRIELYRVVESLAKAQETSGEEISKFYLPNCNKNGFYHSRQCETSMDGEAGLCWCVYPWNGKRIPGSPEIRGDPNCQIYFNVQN
The experiment can be described thus: ELISA.

Experiment [2] deals with T2, human TROP2 cysteine poor domain (CPD), recombinant (human, UniProt P09758 147-274).
T2 sequence: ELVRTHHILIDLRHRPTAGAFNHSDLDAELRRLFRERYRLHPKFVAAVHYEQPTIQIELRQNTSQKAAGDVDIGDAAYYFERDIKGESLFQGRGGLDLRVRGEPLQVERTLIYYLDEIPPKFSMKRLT
The experiment can be described thus: immunoblot, 1 µg/mL antibody, anti-human IgG-HRP. The method, then:
Samples of recombinant proteins of human TROP2 extracellular domain (ECD) (Sino Biological, Cat. no. 10428-H08H) and human TROP2 cysteine poor domain (CPD) were prepared for SDS-PAGE analysis under reducing or non-reducing conditions with NuPAGE™ LDS Sample Buffer (ThermoFisher Cat. no NP0007) with NuPAGE™ Sample Reducing Agent (ThermoFisher Cat. no. NP0004) or without reducing agent. Samples under reducing condition were denatured by heating at 70° C. for 10 minutes. Samples (16 μL) were loaded onto 4-12% Bis-Tris mini-gels (1.5 mm, 15 wells) or 250 ng of samples were loaded onto 14% Tris-glycine mini-gels alongside a BSA standard. […] Gels were stained using GelCode™ staining reagent (Thermo Fisher, Cat. no. 24594).
Proteins were transferred to nitrocellulose membranes using the iBlot™ system (Thermo Fisher, Cat. no. IB301031) according to the manufacturer's instructions. Membranes were blocked by incubation in PBS/0.1% Tween™ 20/5% Milk for 1 hour at room temperature with shaking, followed by incubation with 1 μg/mL of Anti-TROP2 antibodies or the isotype control (IgG1 isotype) in 20 mL of PBS/0.1% Tween™ 20/5% milk. Membranes were washed three times for 10 minutes with PBS/0.1% Tween™ 20. Membranes were incubated with HRP-conjugated goat anti-human IgG antibody (Sigma-Aldrich, AP113P) diluted at 1:10000 in blocking buffer for 1 hour at room temperature with shaking. Membranes were washed three times for 10 minutes with PBS/0.1% Tween™ 20. The signal was visualized using Super Signal™ West Pico PLUS (Thermo Fisher, Cat. no. 34080) according to the manufacturer's instructions. Images were captured using the Azure Biosystem imaging system.
(In general: In western blotting, separated proteins are transferred to a membrane and probed.)

For experiment [3], the target named is T3, recombinant human TROP2 extracellular domain (aa 1-274) comprising His tag (human, UniProt P09758 27-274).
T3 construct: Used here for all assays on recombinant human TROP2 (ELISA, immunoblot, SPR, crystal), although only some of them name the catalogue number; also called human recombinant TROP2; recombinant human TROP2 protein; not shown: His tag
T3 sequence: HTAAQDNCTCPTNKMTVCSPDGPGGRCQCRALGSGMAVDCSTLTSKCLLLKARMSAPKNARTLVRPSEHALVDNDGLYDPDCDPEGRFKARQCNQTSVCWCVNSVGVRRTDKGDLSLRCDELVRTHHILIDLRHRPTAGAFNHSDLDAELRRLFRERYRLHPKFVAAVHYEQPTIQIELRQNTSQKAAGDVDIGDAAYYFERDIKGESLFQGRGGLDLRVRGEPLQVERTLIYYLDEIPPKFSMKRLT
The experiment can be described thus: ELISA, coated rh TROP2. The method, then: (§1) Human TROP2 recombinant proteins were coated on 96-well ELISA plates at the concentration of 1 μg/mL. Plates were covered with adhesive plate cover and stored at 4° C. overnight. The next day, plates were washed 3× with washing buffer (PBS with 0.1% Tween™ 20). Plates were blocked with 2% fat-free BSA in washing buffer for 1 hour at 37° C. During the incubation time, the TROP2 reference antibodies, as well as the humanized variants, were diluted in the blocking buffer to the indicated concentrations. […] After blocking, the blocking buffer was removed from the wells and 100 μL of anti-TROP2 sdAbs dilutions were transferred to the corresponding wells. Plates were covered with adhesive plates cover and incubated at 37° C. for 1 hour. During the primary antibody incubation, the secondary antibody (goat anti-human IgG, HRP conjugated) was diluted 1 in 5000 with the blocking buffer. Plates were washed 3× with blocking buffer, followed by secondary antibody incubation for another 1 hour at 37° C. After the secondary antibody incubation, plates were washed 3× with washing buffer and added with 100 μL of ELISA chemiluminescent substrate (Thermofisher). The luminescence signal was detected by SpectraMax i3x at […].
Background: ELISA stands for enzyme-linked immunosorbent assay.

Experiment [4] addresses T3, recombinant human TROP2 extracellular …. The experiment can be described thus: ELISA, coated rh TROP2, normalized to KD005.
Experiment [5] shares this target. The experiment can be described thus: competitive ELISA on coated recombinant human TROP2, competitor KD004-His, anti-His-HRP. The method, then:
The epitope characterization was assessed by competitive ELISA (FIG. 8 and FIG. 9). Microplates were coated with human recombinant TROP2 at 4° C. overnight. After washing, plates were blocked with blocking buffer (PBS+2% BSA), for 1 hour at room temperature. Meanwhile, the dilution for anti-TROP2 VHH sdAbs was prepared with blocking buffer making two different dilutions depending on the tag. For sdAbs with His tag, the antibody was diluted to 28571.4 pM. For sdAbs without tag, antibodies were serially diluted from 2857142.9 pM to 0.29 pM (8 dilutions, 10×). After that, equal volume of the his-tagged sdAbs and serial diluted non-tagged sdAbs were mixed, to make the final concentration of his-tagged sdAbs 14285.7 pM and non-tagged sdAbs from 1428571.4 pM to 0.14 pM. After washing two times, the mixed antibody contents were added into the wells and the plates were incubated for 2 hours at room temperature. The HRP-conjugated anti-6× His was diluted to 1:5000 and added to the wells after washing three times. Any unbound conjugate was removed by washing after 1 hour incubation at room temperature, and the colorimetric reaction was performed by adding the same volume of Supersignal ELISA Pico Luminol/Enhancer and SuperSignal ELISA Pico Stable Peroxide Solution and detected on SpectraMax i3x Microplate Reader. Positive and negative controls were included in each plate.

For experiment [6] the target is unchanged. The experiment can be described thus: ELISA, coated rh TROP2. On the procedure:
as §1
This is another data set of the same source.

Read-outs that look alike come from different tables or passages of the source.

B1: KD007 (antibody, human IgG1, V domains shown)
VH: QVQLQESGGGLVQPGGSLRLSCAASGFAFSFYAMAWYRQAPGKQRDMVATITAYGNTNYADSVKGRFTTSRDNAKNTVYLQMNSLKPEDTAVYVCNANLPSASHNYWGQGTQVTVSS
notes: also called anti-TROP2 sdAb KD007
Turning to B1, the binding result in experiment [1] is reported as “no binding”.

B2: KD001 (antibody, human IgG1, V domains shown)
VH: QVQLQESGGGMVHPGGSLRLSCAASGFTFSGSDMSWVRQAPGKGPEWVSYITSGGTTYYPDSVKGRFTISRDNAKNTLYLQMNSLTPDDTALYRCAKARLTDSHYVEDAWGQGTQVTVSS
notes: also called anti-TROP2 sdAb KD001
In the case of B2, the binding result in experiment [2] is listed as “no binding (tested: 1 µg/mL)”.

B3: KD005 (antibody, human IgG1, V domains shown)
VH: QVQLQESGGGLVEAGGSLRLSCAASGFTFSGSDMSWVRQAPGKGPEWVSYITSGGTTYYPDSVKGRFTISRDNAKNTLYLQMNSLKPDDTALYRCAKSRLTDSHYVEDAWGQGTQVTVSS
notes: also called anti-TROP2 sdAb KD005
In general, EC50 refers to the concentration needed to bring the measured effect to its halfway point. Turning to B3, in experiment [3], the EC50 is 0.08 nM and the “EC50% to KD005” value was 1 ratio to KD005. For the same molecule, in experiment [4], the “EC50 relative to KD005” value was 1 ratio to KD005. Also, the binding result in experiment [2] was “no binding (tested: 1 µg/mL)”.

B4: KD004 (antibody, human IgG1, V domains shown)
VH: QVQLQESGGGLVQPGRSLRLSCAASGFTFSGSDMSWVRQAPGKGPEWVSYITGSGTTYYPDSVKGRFTTSRDNAKNMLYLQMNSLKPDDTALYRCAKARLTDSHYVEDAWGQGTQVTVSS
notes: also called anti-TROP2 sdAb KD004
As for B4, the binding result in experiment [2] is “no binding (tested: 1 µg/mL)”. The “IC50 (read off the curve)” value in experiment [5] is ~60 nM.

B5: KD002 (antibody, human IgG1, V domains shown)
VH: QVQLQESGGGMVQVGGSLRLSCAASGFPFSSADMSWVRQAPGKGPEWVSYINADGSKTYYPDSVKGRFTISRDNAKNTLYLLMNNLKPEDTALYRCARAKLTDTHYVEDYWGQGTQVTVSS
notes: also called anti-TROP2 sdAb KD002
Turning to B5, in experiment [6], the EC50 worked out at 0.07 nM. Also, in experiment [3], the EC50 worked out at 0.055 nM and the “EC50% to KD005” value was 0.688 ratio to KD005. Further, the binding result in experiment [2] is reported as “no binding (tested: 1 µg/mL)”.

B6: KD003 (antibody, human IgG1, V domains shown)
VH: QVQLQESGGGMVQPGGSLRLSCAASGFTFSNYDMSWVRQAPGKGPEWVSYINAGGSNTDYPDSVKGRFTISRDNAKNMLYLLMNNLKPEDTALYRCARAKLTDTHYVEDYWGQGTQVTVSS
notes: also called anti-TROP2 sdAb KD003
B6: the binding result in experiment [2] is given as “no binding (tested: 1 µg/mL)”.
